Experimental data as given in patent US20150104459A1 (published 2015).

B1: TCN-553 (5261_C18) (antibody, V domains shown)
VH: QVQVVQSGTEVKKPGSSVKVSCQTSGGRFMSYAITWVRQAPGQGLEWMGGIVPVFGTANYAQKFQGRVTITTDDSTRTAYMELSSLRSEDTAVYYCGFRYGSGYGFDSWGQGTLVTVSS
VL: EIVLTQSPGTLSLSPGERATLSCRASQSVSSSYLAWYQKKPGQAPRLLIYGASTRATGIPDRFTGSGSGTDFTLSISRLEPEDFAVYYCQHFGTSVFTFGGGTKVEIK
B2: TCN-552 (5249_I23) (antibody, V domains shown)
VH: QVQVVQSGAEVKKPGSSVRVSCQASGGTFMNYAIIWVRRAPGQGLEWMGGIIPVFPTPNYAQMFQGRVTISTDESRSTSFLELTNLRYEDTAVYYCARRIYHGGNSGFDFWGQGTLVTVSS
VL: EIVLTQSPATLSLSPGERATLSCRASQSVGNYLAWYQQKPGQAPRLLIYDSSNRAPGIPARFSGSGSGTDFTLTISSLAPEDFAVYYCQQRSKWPPMYSFGHGTKLEIK
B3: TCN-546 (5089_L08) (antibody, V domains shown)
VH: QVQLQQWGAGLLKPSETLSLTCGVYGGSLSDYYWSWIRQPPGKGLEWIGEINHSGGTNYNPSLKRRVTISVDTSKKQFSLKMNSVTAADTAVYYCARGTDPDTEVYCRAGNCAAFDFWGQGTLVTVSS
VL: EIVLTQSPGTLSLSPGERATLSCRASHFVIGRAVAWYQQKPGQAPRLLIYGASSRATGIPDRFSGSGSGTDFTLTISRLETEDFAVFYCQHYGSSPRYAFGQGTKLEIK
B4: TCN-543 (5081_G23) (antibody, V domains shown)
VH: QVHLVQSGAEVRKPGDSVKVSCKTSGYTFSTYPVAWVRQVPGQGLEWMGWISTYNGNTNFAQNFQGRVTLTTDTTTNTAYMEVRSLKFDDTAVYYCARVEGSYRDFWNNQNRFDPWGQGTLVTVSS
VL: SYVLTQPPSVSVAPGQTARISCGGSNIGGKSVHWYQQKPGQAPVLVVYDDSGRPSGIPERFSGSNSGDTATLTISRVEAGDEADYFCQVWDNFGGVFGTGTKVTVL
B5: TCN-555 (5246_L16) (antibody, V domains shown)
VH: QVQLVQSGAEVKRPGSSVKVSCTASGGIFRKNAISWVRQAPGQGLEWMGGIIAVFNTANYAQKFQNRVKITADESGNTAYMELSSLTSDDTAVYYCASHPKYFYGSGSYPDFWGQGTLVTVSS
VL: QSALTQPRSVSGSPGQSITISCTGGSSDIGASNSVSWYQQHPGKAPKLVIFDVTERPSGVPHRFSGSKSGNTASLTVSGLQPDDEADYFCCAYGGKYLVVFGGGTKVTVL
B6: TCN-556 (5089_K12) (antibody, V domains shown)
VH: QVQLVQSGAEVKKPGASVKVSCKASGYTFIGYDMHWVRQAPGQGLEWMGWINAKRGGTNYAQKFQGRVTMTRDTSISTAYMELNSLRSDDTAVYYCARGVGSRTTIFGVLNPEFDYWGQGTLVTVSS
VL: QSALTQPPSASGSPGQSVTISCTGSSSDVGGYDYVSWYQQHPGKAPKLLIYEVTKRPSGVPDRFSGSKSGNTASLTVSGLQAEDEADYYCSSYAGNYNHVFGPGTKVTVL
B7: TCN-556 (5089_K12) (antibody, V domains shown)
VH: QVQLVQSGAEVKKPGASVKVSCKASGYTFIGYDMHWVRQAPGQGLEWMGWINAKRGGTNYAQKFQGRVTMTRDTSISTAYMELNSLRSDDTAVYYCARGVGSRTTIFGVLNPEFDYWGQGTLVTVSS
VL: QSALTQPPSASGSPGQSVTISCTGSSSDVGGYDYVSWYQQHPGKAPKLLIYEVTKRPSGVPDRFSGSKSGNTASLTVSGLQAEDEADYYCSSYAGNYNHVFGPGTKVTVL
B8: TCN-542 (5079_A16) (antibody, V domains shown)
VH: QVQLQESGPGLVKPSQTLSLTCTVSGGSISSGNYYWNWVRQHPGKGLEWIGYIYYRGSTFYNPSLKSRVTISIDTSKNQFSLRLSSVTAADTAVYYCAKDTRSSLDNYQYGMDVWGQGTTVTVSS
VL: QTVVTQEPSLTVSPGGTVTLTCASSTGAVTSSYFPNWFQQKPGQAPRPLIYSTTIRHSWTPARFSGSLLGGKAALTLSGVQPEDEADYYCLLYSGGDPVAFGGGTKLTVL
B9: TCN-545 (5082_I15) (antibody, V domains shown)
VH: QVQLQQWGAGLLKPSETLSLSCAVFGGSFSDYYWTWIRQPPGKGLEWIGEIKHSGRTNYNPSLESRVTISVDTSKNQFSLKLSSVTAADTAIYYCARGTDPDTEGYCRSGSCSAFDFWGQGTLVTVSS
VL: EIVLTQSPGTLSLSPGERATLSCRASHFVNYRSLAWYQQTPGQVPRLLIYGASTRATGIPDRFSGSGSGTDFTLTISRLEPEDFAVYFCQQYGGSPRYTFGQGTRLEIK
B10: TCN-540 (5060_F05) (antibody, V domains shown)
VH: QVQLVQSGGGVVQPGRSLRLSCAASGFTFSSYAMHWVRQAPGKGLEWVAIISYDGNDQYYTDSVKGRFTISRDSSKVYLQMHRLRPEDTAVYYCAKEFETSGYFHGSFDYWGQGILVTVSS
VL: QSALTQPASVSGSPGQSITISCTGTSSDVGGYNYVSWYQQHPGKAPKLLIYEVTNWPSGVSNRFSGSKSGNTASLTISGLQAEDEADYYCSSYAGSSTWVFGGGTRVTVL
B11: TCN-560 (5084_P10) (antibody, V domains shown)
VH: EVQLVESGGGLVQPGGSLRLSCAASGFIFRNYWMSWVRQAPGKGLEWVANIKQDGREKYYVDSLRGRVNISRDNAENSLYLHMNSLRVEDTAVYFCARARMVVVTGDGFDVWGHGTMVTVSS
VL: DIQMTQSPSSLSASVGDRVTITCRASQNIKRYFNWYQQKPGKAPKLLIYAASNLENGVPSRFSGSGSGTDFTLTISSLQPEDFATYYCQQSFSKSWTFGQGTNVDIK
B12: TCN-560 (5084_P10) (antibody, V domains shown)
VH: EVQLVESGGGLVQPGGSLRLSCAASGFIFRNYWMSWVRQAPGKGLEWVANIKQDGREKYYVDSLRGRVNISRDNAENSLYLHMNSLRVEDTAVYFCARARMVVVTGDGFDVWGHGTMVTVSS
VL: DIQMTQSPSSLSASVGDRVTITCRASQNIKRYFNWYQQKPGKAPKLLIYAASNLENGVPSRFSGSGSGTDFTLTISSLQPEDFATYYCQQSFSKSWTFGQGTNVDIK
B13: TCN-558 (5248_H10b) (antibody, V domains shown)
VH: QVQLVQSGSEVKKPGTSVKVSCTASGSVFTNYGISWVRQAPGQGLEWMGGIIPLFGAAKYAQKFQGRVTITADESTKTVYMELSRLTSKDTAIYFCAKAPRVYEYYFDQWGQGTPVTVSS
VL: EIVMTQFPATLSVSPGERVTLSCRASQSVSNNLAWYQQKPGQPPRLLIYDASTRATGVPAKFSGTGSGTEFTLSISSLQSEDFAVYYCQQYHNWPPSYSFGLGTKLEIK
B14: TCN-551 (5243_D01) (antibody, V domains shown)
VH: EVQLVQSGSEVKKPGESLKISCKGSGYSFSNYWIGWVRHMPGKGLEWMGIIYPGDSDTRYSPSFQGQVTMSADKSSSTVYLQWSSLKASDTAIYYCARRGGHSFGYGSGGDTHSEFDSWGQGTLVTVSS
VL: QSVLTQSPSVSAAPGQKVTISCSGSDSNIGDYFVCWYQHLPGKPPQLLIYENNKRPSGIPDRFSGSKSGTSATLGITGIQTGDEADYYCATWDGSLSAWVFGGGTKLTVL

Columns and labels:
[1] = biological target: hemagglutinin (HA) of live influenza A/Wisconsin/67/05 (H3N2) virus (influenza A virus A/Wisconsin/67/2005 …); experiment: cell-based or functional assay
[2] = biological target: hemagglutinin (HA) of live influenza A/Solomon Islands/3/06 (H1N1) virus (influenza A virus A/Solomon …); experiment: cell-based or functional assay
[3] = biological target: hemagglutinin (HA) of live influenza A/California/4/09 (H1N1) virus (influenza A virus A/California/04/2009 …); experiment: cell-based or functional assay
[4] = biological target: recombinant soluble homotrimeric HA, A/duck/Yangzhou/02/2005 (H8N4) (influenza A virus …); experiment: microarray, trimeric HA, transfection supernatant
[5] = biological target: recombinant soluble homotrimeric HA, A/chicken/Vietnam/NCVD-016/08 (H5N1) (influenza A virus …); experiment: microarray, trimeric HA, transfection supernatant
[6] = biological target: recombinant soluble homotrimeric HA, A/Hong Kong/156/97 (H5N1) (influenza A virus A/Hong Kong/156/97 …); experiment: microarray, trimeric HA, transfection supernatant
[7] = biological target: recombinant soluble homotrimeric HA, A/Anhui/1/05 (H5N1) (influenza A virus A/Anhui/1/2005 (H5N1)); experiment: microarray, trimeric HA, transfection supernatant
[8] = biological target: recombinant soluble homotrimeric HA, A/northern shoveler/California/HKWF115/2007 (H6N1) (influenza A virus A/northern …); experiment: microarray, trimeric HA, transfection supernatant
[9] = biological target: recombinant soluble homotrimeric HA, A/Netherlands/219/03 (H7N7) (influenza A virus A/Netherlands/219/03 …); experiment: microarray, trimeric HA, transfection supernatant
[10] = biological target: recombinant soluble homotrimeric HA of A/duck/Yangzhou/02/2005 (H8N4) (Influenza A virus …); experiment: HA microarray, BCC supernatant
[11] = biological target: recombinant soluble homotrimeric HA of A/northern shoveler/California/HKWF115/2007 (H6N1) (Influenza A virus A/northern …); experiment: HA microarray, BCC supernatant

| Binder | % Neutralization [1] [%] | % Neutralization [2] [%] | further results |
| --- | --- | --- | --- |
| B1 | 5 | 44 | – |
| B2 | 14 | 0 | – |
| B3 | 100 | 98 | % Neutralization [3]: 0% |
| B4 | 73 | 98 | – |
| B5 | 5 | 49 | – |
| B6 | – | – | Trimeric HA Binding RLU [4]: 22400 RLU; Trimeric HA Binding RLU [5]: 22700 RLU; Trimeric HA Binding RLU [6]: 24600 RLU; Trimeric HA Binding RLU [7]: 13800 RLU; Trimeric HA Binding RLU [8]: 34800 RLU; Trimeric HA Binding RLU [9]: 43600 RLU |
| B7 | – | – | Trimeric HA Binding RLU [10]: 16900 RLU; Trimeric HA Binding RLU [11]: 11900 RLU |
| B8 | 8 | 99 | % Neutralization [3]: 15% |
| B9 | 99 | 88 | – |
| B10 | 98 | 3 | – |
| B11 | – | – | Trimeric HA Binding RLU [4]: 27900 RLU; Trimeric HA Binding RLU [5]: 18200 RLU; Trimeric HA Binding RLU [6]: 29300 RLU; Trimeric HA Binding RLU [7]: 18600 RLU; Trimeric HA Binding RLU [8]: 35900 RLU; Trimeric HA Binding RLU [9]: 32100 RLU |
| B12 | – | – | Trimeric HA Binding RLU [10]: 44700 RLU; Trimeric HA Binding RLU [11]: 42300 RLU |
| B13 | 7 | 84 | – |
| B14 | 6 | 99 | – |
